Patent publication US20090137003A1 (SYMPHOGEN A S, published 2009)

Columns and labels:
Experiment in all cases: cell-based or functional assay
[1] = target: T1, RSV protein F of strain A2 (RSV A2 (ATCC number VR-1540), UniProt P03420 26-574)
[2] = target: T2, RSV protein F of strain Long (RSV Long (ATCC number VR-26), UniProt P12568 26-574)
[3] = target: T3, RSV protein F of strain B Wash/18537 (RSV B Wash/18537 (ATCC number VR-1580), UniProt P13843 26-574)
[4] = target: T1, RSV protein F of strain A2; remark: listed apart in the source
[5] = target: T2, RSV protein F of strain Long; remark: listed apart in the source
[6] = target: T3, RSV protein F of strain B Wash/18537; remark: listed apart in the source

T1 sequence (P03420 26-574): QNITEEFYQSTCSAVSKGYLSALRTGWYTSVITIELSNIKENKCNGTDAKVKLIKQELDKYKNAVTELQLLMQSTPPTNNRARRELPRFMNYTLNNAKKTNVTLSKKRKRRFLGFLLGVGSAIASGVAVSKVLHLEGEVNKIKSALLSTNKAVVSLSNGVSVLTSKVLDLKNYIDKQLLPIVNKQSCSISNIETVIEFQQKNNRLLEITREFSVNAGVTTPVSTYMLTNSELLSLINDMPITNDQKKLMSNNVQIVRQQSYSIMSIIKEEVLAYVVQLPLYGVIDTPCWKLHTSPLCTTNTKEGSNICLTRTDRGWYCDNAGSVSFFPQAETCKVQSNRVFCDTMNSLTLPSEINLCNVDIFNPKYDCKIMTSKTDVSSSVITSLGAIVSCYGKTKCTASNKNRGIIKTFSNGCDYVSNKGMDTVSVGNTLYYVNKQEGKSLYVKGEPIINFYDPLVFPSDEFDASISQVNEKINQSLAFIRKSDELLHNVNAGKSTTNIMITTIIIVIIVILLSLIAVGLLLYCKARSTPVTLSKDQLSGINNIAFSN
T3 sequence (P13843 26-574): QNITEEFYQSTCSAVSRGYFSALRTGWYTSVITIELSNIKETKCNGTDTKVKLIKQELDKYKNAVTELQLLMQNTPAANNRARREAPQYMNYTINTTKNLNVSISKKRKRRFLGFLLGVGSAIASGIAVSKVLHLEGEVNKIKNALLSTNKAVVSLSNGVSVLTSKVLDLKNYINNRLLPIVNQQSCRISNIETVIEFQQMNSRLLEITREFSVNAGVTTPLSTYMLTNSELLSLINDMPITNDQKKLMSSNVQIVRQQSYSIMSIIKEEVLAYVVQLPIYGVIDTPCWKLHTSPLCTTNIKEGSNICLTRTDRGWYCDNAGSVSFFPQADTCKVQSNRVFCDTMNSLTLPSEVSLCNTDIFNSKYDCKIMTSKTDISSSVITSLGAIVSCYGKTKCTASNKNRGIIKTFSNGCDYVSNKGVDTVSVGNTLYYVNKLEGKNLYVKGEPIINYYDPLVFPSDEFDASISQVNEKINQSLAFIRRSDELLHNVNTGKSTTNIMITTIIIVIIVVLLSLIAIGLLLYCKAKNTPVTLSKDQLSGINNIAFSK
T2 sequence (P12568 26-574): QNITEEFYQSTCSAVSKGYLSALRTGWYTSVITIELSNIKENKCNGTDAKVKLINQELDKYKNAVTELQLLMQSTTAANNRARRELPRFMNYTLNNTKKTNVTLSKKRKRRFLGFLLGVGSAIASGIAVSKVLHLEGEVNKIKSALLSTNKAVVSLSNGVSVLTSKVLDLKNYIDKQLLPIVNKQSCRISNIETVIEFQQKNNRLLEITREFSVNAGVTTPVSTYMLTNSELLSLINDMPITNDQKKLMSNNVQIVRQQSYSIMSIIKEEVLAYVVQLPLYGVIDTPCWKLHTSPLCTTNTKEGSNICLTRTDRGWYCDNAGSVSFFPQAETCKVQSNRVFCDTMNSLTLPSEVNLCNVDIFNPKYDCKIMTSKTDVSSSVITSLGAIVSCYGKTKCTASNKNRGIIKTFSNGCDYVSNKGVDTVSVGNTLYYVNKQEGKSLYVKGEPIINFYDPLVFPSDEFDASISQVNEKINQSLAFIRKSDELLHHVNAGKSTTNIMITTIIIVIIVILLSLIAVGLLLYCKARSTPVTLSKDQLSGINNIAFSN

B1: Palivizumab (Synagis) (antibody, V domains shown)
VH: QVTLRESGPALVKPTQTLTLTCTFSGFSLSTSGMSVGWIRQPPGKALEWLADIWWDDKKDYNPSLKSRLTISKDTSKNQVVLKVTNMDPADTATYYCARSMITNWYFDVWGAGTTVTVSS
VL: DIQMTQSPSTLSASVGDRVTITCKCQLSVGYMHWYQQKPGKAPKLLIYDTSKLASGVPSRFSGSGSGTEFTLTISSLQPDDFATYYCFQGSGYPFTFGGGTKLEIK
Question: Which results are given for B1?
Answer: PRNT EC50 with complement, RSV A2 [1]: 0.15 µg/mL; PRNT EC50 with complement, RSV Long [2]: 0.14 µg/mL; PRNT EC50 with complement, RSV 18537 [3]: 0.2 µg/mL; EC50 value (µg/ml), PRNT (plaque reduction neutralization) against RSV strain A2 [4]: 0.15 µg/mL; EC50 value (µg/ml), PRNT (plaque reduction neutralization) against RSV strain Long [5]: 0.14 µg/mL; EC50 value (µg/ml), PRNT (plaque reduction neutralization) against RSV strain 18537 [6]: 0.2 µg/mL
